To fix the notation:
T1: CD20 protein on CD20 protein-positive lymphoma cell Raji (ATCC CCL-86) (UniProt P11836 1-297, limits assumed)
T1 construct: whole, on cells; The target is native CD20 on Raji cells; also called CD20 antigen
T1 sequence (looked up): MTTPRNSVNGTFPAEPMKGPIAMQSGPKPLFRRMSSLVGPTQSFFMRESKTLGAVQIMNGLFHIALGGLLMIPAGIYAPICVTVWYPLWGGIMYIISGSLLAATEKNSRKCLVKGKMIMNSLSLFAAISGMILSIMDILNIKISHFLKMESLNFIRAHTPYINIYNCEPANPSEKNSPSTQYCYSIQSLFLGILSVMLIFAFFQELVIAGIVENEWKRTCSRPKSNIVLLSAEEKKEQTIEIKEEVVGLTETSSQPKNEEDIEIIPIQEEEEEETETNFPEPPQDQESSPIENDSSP

B1: novel CD20 antibody H102YH (antibody, human IgG1, V domains shown)
VH: QVQLQQPGAELVKPGASVKMSCKASGYTFTSYNMHWVKQTPGRGLEWIGAIYPGNGDTSYNQKFKGKATLTADKSSSTAYMQLSSLTSEDSAVYYCARSTYHGGDWYFNVWGAGTTVTVSA
VL: QIVLSQSPAILSASPGEKVTMTCRASSSVSYIHWFQQKPGSSPKPWIYATSNLASGVPVRFSGSGSGTSYSLTISRVEAEDAATYYCQQWTSNPPTFGGGTKLEIKV
B2: novel CD20 antibody H102YR (antibody, human IgG1, V domains shown)
VH: B1 VH with H102R
VL: B1 VL
B3: novel CD20 antibody H102YS (antibody, human IgG1, V domains shown)
VH: B1 VH with H102S
VL: B1 VL
B4: novel CD20 antibody H102YQ (antibody, human IgG1, V domains shown)
VH: B1 VH with H102Q
VL: B1 VL
B5: novel CD20 antibody H102YL (antibody, human IgG1, V domains shown)
VH: B1 VH with H102L
VL: B1 VL
B6: novel CD20 antibody H102YN (antibody, human IgG1, V domains shown)
VH: B1 VH with H102N
VL: B1 VL
B7: novel CD20 antibody H102YM (antibody, human IgG1, V domains shown)
VH: B1 VH with H102M
VL: B1 VL
B8: novel CD20 antibody H102YV (antibody, human IgG1, V domains shown)
VH: B1 VH with H102V
VL: B1 VL

Residue numbers refer to the chain shown, from its start.

For this experiment, the target named is T1, CD20 protein on CD20 protein-positive …. In words: flow cytometry, fluorescently labeled antibody on Raji cells. As to the method:
Briefly, after diluted in equal concentration proportions, the purified fluorescently labeled antibody was incubated with the CD20 protein-positive lymphoma cell Raji (ATCC CCL-86) for 45 minutes on ice, and then washed twice and subjected to flow cytometry. The binding activity of the antibody was further evaluated based on the change in fluorescence intensity of the antibody after binding to the cells at different antibody concentrations.
For the molecule B1, the binding result was “binds”. For B2, the binding result is recorded as “binds”. Under B3 stands “binds”; under B4, “binds”; under B5, “binds”. Under B6 stands “binds”. Under B7 stands “binds”; under B8, “binds”.

These data come from patent US20190135934A1 (published 2019).
